Columns and labels:
[1] = tested on: P04590; experiment: turbidity; details: other: turbidity (light scattering at 340 nm) of cell-free assembly
[2] = turbidity; details: other: turbidity (light scattering at 340 nm) of cell-free assembly

| Substance | fold lower turbidity (A340 nm) at 120 min than WT [2] | normalized A340 nm (turbidity) [2] | further results |
| --- | --- | --- | --- |
| HIV-2 CA-NC protein (Gag amino acids 136-431), wild type |  |  | normalized A340 nm (turbidity), peak at 20 min [1]: peaked at 20 min (i.e., 1.27); normalized A340 nm (turbidity), stable value after the peak [1]: remained stable (i.e., 0.56) |
| HIV-2 CA-NC protein (Gag amino acids 136-431), CA A41D mutant | 25-fold (A41D) lower than that of WT |  | normalized A340 nm (turbidity), whole time course [2]: low turbidity readings (i.e., < 0.36) |
| HIV-2 CA-NC protein (Gag amino acids 136-431), CA I152A mutant | 7.0-fold (i.e., G38M, N127E, I152A) | 0.65 |  |
| HIV-2 CA-NC protein (Gag amino acids 136-431), CA G38M mutant | 7.0-fold (i.e., G38M, N127E, I152A) | 0.34 |  |
| HIV-2 CA-NC protein (Gag amino acids 136-431), CA N127E mutant | 7.0-fold (i.e., G38M, N127E, I152A) |  |  |
| HIV-2 CA-NC protein (Gag amino acids 136-431), CA L19A mutant |  | 1.77 |  |

Reference: paper doi:10.1101/2022.01.31.478542
